Results published in patent publication US20160115467A1 (Biogen, published 2016).
Substitutions are numbered along the chain they refer to.

B1: 28C2 (antibody, V domains shown)
VH: QVTLKASGPGIVQPSQTLSLTCSFSGFSLNTSGMGVGWIRQPSGKGLEWLAHIWWDDDKRYNPALKSRLTISKDTSNNQIFLKIASVDTADTATYYCARSHYYGTFYFDYWGQGTTLTVSS
VL: DVQITQSPSYLAASPGETITINCRASKSISKYLAWYQEKPGTTYKLLIYSGSTLQSGIPSRFSGSGSGTDFTLTISSLEPEDFAMYYCQQHIEYPWTFGGGTKLEIKR
notes: Mouse monoclonal from BALB/c hybridoma, tested as hybridoma supernatant; also called 28C2 antibody
B2: 9D6 (antibody, V domains shown)
VH: QVTLKESGPGILQPSQTLSLTCSFSGFSLSTSGMGVGWIRQSSGKGLEWLAHIWWDDDKRYNPTLKSRLTISKDTSNNQVFLKIANMDTADIATYYCARSHYNGTFYFDFWGQGITLTVSS
VL: B1 VL with T42K, Y44N, S77T
notes: Mouse monoclonal from BALB/c hybridoma, tested as hybridoma supernatant; also called 9D6 antibody
B3: 28F4 (antibody, V domains shown)
VH: EVQLVESGGDLVKPGGSLKLSCAASGFTFSNYGMSWVRQTPDKRLEWVATISSGGTYTYYPDSVKGQFTIFRDNAKNTLYLQMSSLKSEDTAMYYCTRRDYDYEGFAYWGQGTLVTVS
VL: DIVLTQSPATLSVTPGDSVSLSCRASQSISNNLHWYQQKSHESPRLLIKYASHSISGIPSRFSGSGSGTDFTLSINSVETEDFGMYFCQQSNNWPFTFGSGTKLEIKR
notes: Mouse monoclonal from BALB/c hybridoma, tested as hybridoma supernatant; also called 28F4 antibody
B4: 18F7 (antibody, V domains shown)
VH: QVQLKESGPGLVAPSQSLSITCTVSGFSLTSYGVSWVRQPPGKGLEWLGIIWGDGSTNYHSVLKSRLSISKDNSKSQVFLKLNSLQTDDTATYYCAKQDFDVWGAGTTVTVSS
VL: DVQMIQSPFSLSASLGDIVTMTCQASQGTSINLNWFQQKPGKAPKLLIYGVSNLEDGVPSRFSGSRYGTDFTLTIGSLEDEDMATYFCLQHSYLPYTFGGGTKLEIKR
notes: Mouse monoclonal from BALB/c hybridoma, tested as hybridoma supernatant; also called 18F7 antibody
B5: 34D10 (antibody, V domains shown)
VH: EVKLVESGGGLVKPGGSLKLSCAASGFTFSAYAMSWVRQTPEKRLEWVASISSGGTTYYPDSVKRRFTISRDNARNILYLQMSSLRSEDTAMYYCTRGGDYGYALDYWGQGTSVTVSS
VL: ENVLTQSPAIMSASLGEKVTMSCRASSSVNYMYWYQQKSDASPKLWIYYTSNLAPGVPARFSGSGSGNSYSLTISSMEGEDAATYYCQQFSSSPWTFGGGTKLEIKR
notes: Mouse monoclonal from BALB/c hybridoma, tested as hybridoma supernatant (detected with anti-mouse IgG); also called monoclonal antibody 34D10; 34D10 antibody
B6: 4B11 (antibody, V domains shown)
VH: B5 VH with A31S, E46A, T56N, T57I, Y59F, R65G, N73D, S83R, T96A, L105M
VL: B5 VL with S22N, Y48F, T101S
notes: Mouse monoclonal from BALB/c hybridoma, tested as hybridoma supernatant; also called 4B11 antibody
B7: 36A8 (antibody, V domains shown)
VH: B5 VH with K3R, A31T, S52N, S53G, T56S, R65G, S83R, T96A
VL: B5 VL with S22N, Y48F, T101S
notes: Mouse monoclonal from BALB/c hybridoma, tested as hybridoma supernatant; also called 36A8 antibody
B8: 12B2 (antibody, V domains shown)
VH: QVQLQQSGAELTKPGASVKISCKATGYTFSSYWIEWVKQRPGHGLEWIGEILPGSGITKYNDKFKGKATFTADTSSNTAYMQLSSLTSEDSAVYSCARLISYYYAMDYWGQGTSVTVSS
VL: DIQMTQTTSSLSASLGDRVTISCRASQDISNYLNWYQQKPDGTVKLLIYYTSRLHSGVPSRFSGSGSGTDYSLTISNLEQEDIATYFCQQGNTLPPTFGGGTKLEIKR
notes: Mouse monoclonal from BALB/c hybridoma, tested as hybridoma supernatant; also called 12B2 antibody
B9: 1H6 (antibody, V domains shown)
VH: QVQLQQSGAELVRPGTSVKVSCKASGYAFTNYLIEWVKQRPGQGLEWIGVINPGSGGTNYNEKFKGKATLTADKSSSTAYMHLSSLTSDDSAVYFCARGRYEWYFDVWGAGTTVTVSS
VL: B8 VL with S30T, Q38R, N92Y, P96Y
notes: Mouse monoclonal from BALB/c hybridoma, tested as hybridoma supernatant; also called 1H6 antibody
B10: 38A8 (antibody, V domains shown)
VH: B9 VH with V37I, H82Q
VL: B8 VL with Q37L, T74S, N92Y, P96Y
notes: Mouse monoclonal from BALB/c hybridoma, tested as hybridoma supernatant; also called 38A8 antibody
B11: rFVIIa (enzyme)
chain 1: ANAFLEELRPGSLERECKEEQCSFEEAREIFKDAERTKLFWISYSDGDQCASSPCQNGGSCKDQLQSYICFCLPAFEGRNCETHKDDQLICVNENGGCEQYCSDHTGTKRSCRCHEGYSLLADGVSCTPTVEYPCGKIPILEKRNASKPQGR
chain 2: IVGGKVCPKGECPWQVLLLVNGAQLCGGTLINTIWVVSAAHCFDKIKNWRNLIAVLGEHDLSEHDGDEQSRRVAQVIIPSTYVPGTTNHDIALLRLHQPVVLTDHVVPLCLPERTFSERTLAFVRFSLVSGWGQLLDRGATALELMVLNVPRLMTQDCLQQSRKVGDSPNITEYMFCAGYSDGSKDSCKGDSGGPHATHYRGTWYLTGIVSWGQGCATVGHFGVYTRVSQYIEWLQKLMRSEPRPGVLLRAPFP
notes: Control without targeting moiety

These binders were tested against T1, human GPIIb/IIIa on human platelets (human, UniProt P08514 32-1039; P05106 27-788) (assay: flow cytometry, hybridoma supernatant on human platelets).
T1 construct: Native receptor on gel-purified human platelets or platelets in diluted human whole blood; also called platelets in human whole blood
Method: Hybridomas were then screened for binding to human and cynomolgus monkey platelets using flow cytometry, and for binding to GPIIb/IIIa using Enzyme-linked immunosorbent assays (ELISA). To determine binding to human and money platelets, gel-purified human or monkey (cynomolgus) platelets in Tyrode's buffer were incubated with hybridoma supernatant. Following a 30 minute incubation, cells were fixed in 1% formaldehyde. Following fixation, cells were washed in Tyrode's buffer and a detection antibody was added (Jackson Immunoresearch goat anti-mouse IgG-PE conjugated). Antibody binding was detected by flow cytometry.

Binder | binding result
B1 | binds
B2 | binds
B3 | binds
B4 | binds
B5 | binds
B6 | binds
B7 | binds
B8 | binds
B9 | binds
B10 | binds

The binders below were run against T1, human GPIIb/IIIa on human platelets (assay: flow cytometry, protein spiked in diluted (1:50) human whole blood, FITC-anti-FVII on CD42b-stained platelets).

Binder | binding result
B11 | no binding

The binders below were run against T2, mouse platelets (mouse GPIIb/IIIa) (mouse, UniProt Q9QUM0 32-1033; O54890 26-787) (assay: binding to platelets in mouse blood (method not detailed; flow cytometry implied)).
T2 construct: whole, on cells; the receptor is inferred from the antibody's target
T2 sequence (Q9QUM0 32-1033, chain 1 of 2): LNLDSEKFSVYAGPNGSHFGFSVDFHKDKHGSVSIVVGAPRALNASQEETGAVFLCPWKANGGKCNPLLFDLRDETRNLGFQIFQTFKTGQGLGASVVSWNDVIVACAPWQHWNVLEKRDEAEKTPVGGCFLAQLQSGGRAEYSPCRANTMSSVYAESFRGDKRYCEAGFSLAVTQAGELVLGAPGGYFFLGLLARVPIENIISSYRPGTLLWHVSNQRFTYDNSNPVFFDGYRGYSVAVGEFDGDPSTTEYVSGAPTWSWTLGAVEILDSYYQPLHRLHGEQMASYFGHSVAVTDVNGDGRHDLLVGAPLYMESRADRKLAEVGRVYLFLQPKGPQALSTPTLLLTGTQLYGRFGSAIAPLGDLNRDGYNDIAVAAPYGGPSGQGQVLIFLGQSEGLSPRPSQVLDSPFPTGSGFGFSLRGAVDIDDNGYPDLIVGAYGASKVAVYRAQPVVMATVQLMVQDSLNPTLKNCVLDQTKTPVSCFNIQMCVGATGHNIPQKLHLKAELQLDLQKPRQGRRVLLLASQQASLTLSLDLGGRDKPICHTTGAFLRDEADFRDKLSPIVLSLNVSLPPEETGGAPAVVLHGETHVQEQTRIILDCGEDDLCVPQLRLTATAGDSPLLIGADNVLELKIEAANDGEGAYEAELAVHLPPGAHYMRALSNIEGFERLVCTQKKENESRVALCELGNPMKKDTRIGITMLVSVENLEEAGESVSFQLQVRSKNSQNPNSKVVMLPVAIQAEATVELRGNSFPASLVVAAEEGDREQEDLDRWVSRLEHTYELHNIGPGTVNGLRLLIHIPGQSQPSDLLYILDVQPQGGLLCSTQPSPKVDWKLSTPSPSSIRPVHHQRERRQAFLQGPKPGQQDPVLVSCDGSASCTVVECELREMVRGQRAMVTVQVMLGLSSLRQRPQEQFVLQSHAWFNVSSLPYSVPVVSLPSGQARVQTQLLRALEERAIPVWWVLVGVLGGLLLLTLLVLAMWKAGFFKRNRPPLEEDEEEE
T2 sequence (O54890 26-787, chain 2 of 2): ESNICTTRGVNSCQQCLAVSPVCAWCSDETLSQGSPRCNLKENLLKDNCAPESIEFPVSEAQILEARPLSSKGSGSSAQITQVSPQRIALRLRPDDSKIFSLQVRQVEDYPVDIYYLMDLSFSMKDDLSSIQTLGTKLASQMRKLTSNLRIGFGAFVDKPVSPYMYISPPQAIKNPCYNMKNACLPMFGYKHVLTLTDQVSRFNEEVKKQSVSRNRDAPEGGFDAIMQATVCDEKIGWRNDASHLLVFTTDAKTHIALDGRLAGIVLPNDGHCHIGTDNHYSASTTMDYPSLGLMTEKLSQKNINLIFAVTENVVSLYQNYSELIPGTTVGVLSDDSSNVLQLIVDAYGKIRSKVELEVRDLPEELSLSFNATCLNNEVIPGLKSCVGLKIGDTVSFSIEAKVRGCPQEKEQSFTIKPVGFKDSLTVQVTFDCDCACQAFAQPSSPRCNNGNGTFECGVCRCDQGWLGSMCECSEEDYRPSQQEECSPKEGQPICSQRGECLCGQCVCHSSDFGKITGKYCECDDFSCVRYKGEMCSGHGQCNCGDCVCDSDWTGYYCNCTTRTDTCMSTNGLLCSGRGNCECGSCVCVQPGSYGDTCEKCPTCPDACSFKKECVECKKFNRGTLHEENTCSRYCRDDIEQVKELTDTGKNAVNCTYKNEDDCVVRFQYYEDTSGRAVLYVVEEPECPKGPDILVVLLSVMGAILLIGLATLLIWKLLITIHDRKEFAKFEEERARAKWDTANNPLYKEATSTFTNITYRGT

Binder | binding result
B5 | no binding
